For data set [1], the system named is hnRNP U WT (SP120) (rat). Nature of the data set: EMSA. Conditions: C50, competitive with equimolar vector, 5 mM Mg2+, 10 mM MgCl2 in gel, EMSA: 35 mM Tris-HCl pH 8.0, 72 mM KCl, 5 mM MgCl2, 5 mM DTT, 5 mM spermidine, 50 ug/ml BSA, 37 C, on-bead: 50 mM Tris-HCl pH 8.0, 120 mM KCl. On the technique in general: A gel shift assay detects complexes by their altered migration in electrophoresis.

For data set [2], the system named is hnRNP U ΔSAP (rat). The data set can be described thus: EMSA. Conditions: C50, competitive with equimolar vector, 5 mM Mg2+, 10 mM MgCl2 in gel, EMSA: 35 mM Tris-HCl pH 8.0, 72 mM KCl, 5 mM MgCl2, 5 mM DTT, 5 mM spermidine, 50 ug/ml BSA, 37 C, on-bead: 50 mM Tris-HCl pH 8.0, 120 mM KCl.
Data set [3] relates to GST-RG (rat). The data set can be described thus: on-bead pull-down. Conditions: Hill 1.8, 100 ng pBS/FTZ, 2 ul beads, 10 mM Mg2+, EMSA: 35 mM Tris-HCl pH 8.0, 72 mM KCl, 5 mM MgCl2, 5 mM DTT, 5 mM spermidine, 50 ug/ml BSA, 37 C, on-bead: 50 mM Tris-HCl pH 8.0, 120 mM KCl, 10 mM MgCl2 ….
The subject of data set [4] is GST-SAP (rat). The data set can be described thus: on-bead pull-down. Conditions: Hill 4.6, 100 ng pBS/FTZ, 2 ul beads, 10 mM Mg2+, EMSA: 35 mM Tris-HCl pH 8.0, 72 mM KCl, 5 mM MgCl2, 5 mM DTT, 5 mM spermidine, 50 ug/ml BSA, 37 C, on-bead: 50 mM Tris-HCl pH 8.0, 120 mM KCl, 10 mM MgCl2 ….
Data set [5] deals with GST-SAP-RG (rat). Nature of the data set: on-bead pull-down. Conditions: Hill 2.5; 100 ng pBS/FTZ, 10 mM Mg2+; unit implied by comparison; EMSA: 35 mM Tris-HCl pH 8.0, 72 mM KCl, 5 mM MgCl2, 5 mM DTT, 5 mM spermidine, 50 ug/ml BSA, 37 C; on-bead: 50 mM Tris-HCl pH 8.0, 120 mM KCl, 10 mM MgCl2 ….

For FTZ S/MAR insert, the K half in data set [1] came out at 14 nM; in data set [2], 32 nM. Also, the half-saturation protein amount (pmol (on beads)) in data set [3] worked out at 13; in data set [4], 22.5. Moreover, the Kd (pmol (on beads)) in data set [5] came out at 6.7.

Source of the values: article PMC10403129.
